Substrate in data set [1]: O=P(O)(O)O[C@H]1O[C@H](CO)[C@@H](O)[C@H](O)[C@H]1O
Put plainly: purified protein. Format: biochemical, Bacillus subtilis. The conditions noted are these: 200 μM UTP, MgCl2 10 mg/ml (so in the source), 50 mM Tris pH 7.5, 500 mM NaCl, 5% glycerol, RT.

Substrate in data set [2]: O=c1ccn([C@@H]2O[C@H](COP(=O)(O)OP(=O)(O)OP(=O)(O)O)[C@@H](O)[C@H]2O)c(=O)[nH]1
The data set can be described thus: purified protein. The conditions noted are these: 200 μM Glc-1-P, MgCl2 10 mg/ml (so in the source), 50 mM Tris pH 7.5, 500 mM NaCl, 5% glycerol, RT. The format is biochemical, Bacillus subtilis.

B1: GtaB (Bacillus subtilis subsp. subtilis str. 168) (protein)
chain: MKKVRKAIIPAAGLGTRFLPATKAMPKEMLPIVDKPTIQYIIEEAVEAGIEDIIIVTGKSKRAIEDHFDYSPELERNLEEKGKTELLEKVKKASNLADIHYIRQKEPKGLGHAVWCARNFIGDEPFAVLLGDDIVQAETPGLRQLMDEYEKTLSSIIGVQQVPEEETHRYGIIDPLTSEGRRYQVKNFVEKPPKGTAPSNLAILGRYVFTPEIFMYLEEQQVGAGGEIQLTDAIQKLNEIQRVFAYDFEGKRYDVGEKLGFITTTLEFAMQDKELRDQLVPFMEGLLNKEEI
notes: full-length, C-terminal His-tag cleaved off with thrombin (pET28b-gtaB-cHis), E. coli BL21(DE3)
Usually Km stands for the substrate concentration at which the rate is half of its maximum. What is called kcat is the number of substrate molecules converted per active site and unit of time at saturation. As to B1, in “purified protein [1]”, the Km was 45.6 ± 3.24 µM and the kcat is 1.06 s⁻¹. In addition, in “purified protein [2]”, the Km worked out at 49.5 ± 10.2 µM and the turnover number (kcat) amounted to 1.04 s⁻¹.

B2: YngB (Bacillus subtilis subsp. subtilis str. 168) (protein)
chain: MRKKVRKAVIPAAGLGTRFLPATKAQPKEMLPIVDKPAIQYIVEEAAESGIEDILIITGRNKRSIEDHFDRSAELEFNLREKGKTETLKEMQQIADLANIHYIRQKEPLGLGHAVLCAEHFIGDEPFAVLLGDDIMVSETPALRQLMDVYDVYGTEVVGVQSVLPEDVSKYGIINTSGSQGHVYEVNDLVEKPSPEEAPSEIAVMGRYVLNSSIFSVLKTIGRGAGNEIQLTDALREVCRKEPIHARLLEGNRYDIGDKLGCFKASTEIGLMRPEMRSQLLAYLEDVIKRETKEMLR
notes: full-length, C-terminal His-tag kept (pET28b-yngB-cHis), E. coli BL21(DE3); native (Met) protein in kinetics; dimer in crystal
B2: the Km in “purified protein [1]” was 42.1 ± 20.2 µM; in the data set “purified protein [2]”, 62.9 ± 13.8 µM. Further, the results for the catalytic constant (kcat) in the data set “purified protein [1]” and in the data set “purified protein [2]” were 0.264 s⁻¹ and 0.293 s⁻¹, respectively.

For the origin of these results see PMC7961091, “Bacillus subtilis YngB contributes to wall teichoic acid glucosylation and glycolipid formation during anaerobic growth” (The Journal of Biological Chemistry, 2021).
